Results on eleven molecules are retold here after patent publication US20200270588A1, “GLUCOSYL TRANSFERASE POLYPEPTIDES AND METHODS OF USE” (Syngenta Participations AG, priority 2017, published 2020).

Experiment [1] addresses T1, SEQ ID NO 17, zmBX9 S117V, M279F, A334K mutant (Zea mays, UniProt B4G072, A334K/M279F/S117V).
T1 construct: polypeptides were the C-terminally his-tagged; His tag (C); made in house
Kind of experiment: UDP-Glo glucosyl transferase assay, purified enzyme. Type of experiment: biochemical. The settings on record: for Activity: herbicide mM: V 0.300, VI 0.250, VII 0.210, IV, VIII, XI, XXI, XX, XVIII, XVI, XV, XIV 0.200, others 1.000. How it is done: (§1) Glucosyl transferase activity is assayed via measurement of acceptor substrate-dependent production of UDP from ultrapure UDP-glucose using the Promega UDP-Glo™ method and according to the manufacturer's instructions. Assays are run in 96 well microtiter plates.
(§2) Enzyme, typically at a stock concentration of ˜2 mg/ml is diluted to an appropriate concentration in 50 mM K^+ Hepes buffer at pH7.5 containing 0.5 mg/mL bovine serum albumin (BSA) and 5 ul aliquots of this diluted enzyme added to each well of a Perkin Elmer white ½ area 96 well plate. […] Assays are run for an appropriate time (usually 10 to 60 min) so that the amount of UDP formed lies within the most nearly linear part of the UDP standard curve and are stopped with the addition and mixing of 25 ul UDP-Glo™ detection reagent (prepared as described below). Plates are then incubated at room temperature for 60 minutes and then read in a luminescence plate reader (Perkin Elmer Envision 2130 Multilabel Reader). A UDP standard curve is run alongside each set of assays and reagent blank control assays run with DMSO in place of test herbicide. Typically, 300 pmol of UDP corresponds to a Relative Luminescence Unit (RLU) reading of about 1.5E7 and the response curve between 0 and 600 pmol is fitted to a polynomial function (see for example FIG. 2).
(§3) The UDP-Glo™ reagents are made up and used according to the manufacturer's instructions. Thus, Nucleotide Detection Buffer and ATP are combined to make nucleotide detection reagent (NDR) dispensed into aliquots and frozen to be freshly thawed before use.
(§4) Km and kcat values in respect of UDP-glucose are derived by carrying out experiments to measure initial rates over a suitable range of concentrations of UDP glucose out at a fixed near saturating concentration of acceptor substrate. Best fit values of kcat, Km and kcat/Km are obtained by direct fitting of the data to the Michaelis-Menten equation using Graphpad Prism™ software.
(§5) Variants of C-terminally his tagged SEQ ID No:1 (w/t bx9 from Zea mays), exemplified as SEQ ID 16-30, were cloned, purified and assayed as described in Example 1. FIG. 4 depicts the data from some experiments to determine the kinetic parameters of some of these variants in respect of herbicide VI and table 12 summarizes the estimates of kinetic parameters obtained from further such experiments in respect of a range of herbicides.
(§6) Table 13 summarizes the results obtained from assays, run as described in Example 1, using a variety of alcohol and aminal PSII herbicides as substrates of the Zea mays bx9 w/t (i.e. C-terminally his tagged SEQ ID no 1) and various mutants of the same, selected from SEQ ID NO: 16-30). All of these proteins were C-terminally his-tagged, expressed and purified as described in Example 1. Assays were run and analyzed as described in example 1. It is seen that various of the mutations herein and combinations thereof led to significant improvements (over the w/t bx9 protein) in catalytic activity versus various of the herbicides and that these improvements are often of sufficient magnitude to be useful for conferring improved herbicide tolerance upon crop. This is especially the case given that even the unmutated w/t bx9 enzyme which has only modest glucosyl transferase activity (for example against compounds V and VI) was nevertheless adequately active to confer significant herbicide tolerance in the glass house (as shown in example 9) even without mutational improvement. It is also seen that particular mutations can lead to very much improved activity in respect of some chemistries but not to others but that, overall, there is at least one variant within the scope of the current invention that provides significant and useful improvement in tolerance to each of the chemistries tested.

For experiment [2], the target named is T2, SEQ ID NO 20, mutant of Zea mays bx9 glucosyl transferase (Zea mays, UniProt B4G072, A281K/A334K/F21Y/L194V/M279F/S117V).
T2 construct: His tag (C); made in house
Type of experiment: biochemical. The note with it: lower block, concentration printed only in upper block: V 0.300, VII 0.210; IV, VIII, XI, XXI, XX, XVIII, XVI, XV, XIV 0.200; others 1.000 mM. How it is done:
as §1
as §2, with “herbicide.” for “herbicide. Typically, 300 pmol of UDP corresponds to a Relative Luminescence Unit (RLU) reading of about 1.5E7 and the response curve between 0 and 600 pmol is fitted to a polynomial function (see for example FIG. 2).”
as §3, §4
All of these proteins were C-terminally his-tagged, expressed and purified as described in Example 1. Assays were run and analyzed as described in example 1.

The target of experiment [3] is T3, SEQ ID NO 22, mutant of Zea mays bx9 glucosyl transferase (Zea mays, UniProt B4G072, A334K/F21Y/M279F/S117V/T220P).
T3 construct: His tag (C); made in house
Description: UDP-Glo glucosyl transferase assay, purified enzyme. Type of experiment: biochemical. The note with it: lower block, concentration printed only in upper block: V 0.300, VII 0.210; IV, VIII, XI, XXI, XX, XVIII, XVI, XV, XIV 0.200; others 1.000 mM. As for the experimental part: as §1, §2, §3, §4, §5, §6

For experiment [4], the target named is T4, Zea mays bx9 glucosyl transferase (C-terminally his tagged SEQ ID NO: 1) (Zea mays, UniProt B4G072).
T4 construct: His tag (C); made in house; host or cells: E. coli BL21 (DE3), pET24a
T4 sequence (B4G072 1-462): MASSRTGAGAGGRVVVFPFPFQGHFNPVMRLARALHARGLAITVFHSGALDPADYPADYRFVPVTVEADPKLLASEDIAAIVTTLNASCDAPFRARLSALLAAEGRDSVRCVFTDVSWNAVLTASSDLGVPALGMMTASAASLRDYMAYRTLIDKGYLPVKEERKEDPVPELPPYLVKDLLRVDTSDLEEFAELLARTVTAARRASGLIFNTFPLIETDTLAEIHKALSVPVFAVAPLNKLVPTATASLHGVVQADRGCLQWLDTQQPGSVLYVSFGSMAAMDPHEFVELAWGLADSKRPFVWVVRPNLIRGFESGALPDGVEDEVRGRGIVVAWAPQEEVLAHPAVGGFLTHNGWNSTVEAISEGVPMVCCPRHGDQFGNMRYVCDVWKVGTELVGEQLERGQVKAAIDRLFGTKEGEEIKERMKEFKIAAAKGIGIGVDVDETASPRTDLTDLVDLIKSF
The experiment is described as above. The note with it: for Activity: herbicide mM: V 0.300, VI 0.250, VII 0.210, IV, VIII, XI, XXI, XX, XVIII, XVI, XV, XIV 0.200, others 1.000. Type of experiment: biochemical. As for the experimental part: as §1, §2, §3, §4

The target in experiment [5] is T5, SEQ ID NO 18, mutant of Zea mays bx9 glucosyl transferase (Zea mays, UniProt B4G072, A281K/A334K/F21Y/M279F/S117V).
T5 construct: His tag (C); made in house
Described as above. Type of experiment: biochemical. The note with it: herbicide mM: V 0.300, VI 0.250, VII 0.210; IV, VIII, XI, XXI, XX, XVIII, XVI, XV, XIV 0.200; others 1.000. How it is done:
as §1, §2
The UDP-Glo™ reagents are made up and used according to the manufacturer's instructions. Thus, Nucleotide Detection Buffer and ATP are combined to make nucleotide detection reagent (NDR) dispensed into aliquots and frozen to be freshly thawed before use. […]
as §6

Experiment [6] is described as follows: UDP luminescence plate assay of E. coli extracts, saturation mutants of SEQ ID NO: 1, herbicide V. Type of experiment: biochemical, Zea mays. The settings on record: improvement factor relative to w/t bx9 = 1.0, rounded to nearest 0.5; extract activity basis; compound V.
A short description of experiment [7]: UDP luminescence plate assay of E. coli extracts, mutants of SEQ ID No: 1, 2 mM metribuzin. Type of experiment: biochemical, Zea mays. The settings on record: for SIGNAL: metribuzin signal of mutant divided by the signal of w/t bx9 / luminescence signal observed with 2 mM metribuzin: 2 mM metribuzin; for SIGNAL: metribuzin signal of mutant divided by the signal of w/t bx9: relative to bx9 w/t; for luminescence signal in the DMSO control: mutants of SEQ ID No: 1, DMSO in place of metribuzin (background UDP-glucose hydrolysis); for luminescence signal observed with 2 mM metribuzin: mutants of SEQ ID No: 1 in E. coli extracts, UDP luminescence. The procedure, abridged: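 Extracts of E. coli BL21 DE3 expressing C-terminally His-tagged SEQ ID NO:1 variants incubated with 2 mM metribuzin; UDP formed read by UDP-Glo luminescence against a UDP standard curve, with optional 95 C stop. Mutants ranked by metribuzin/DMSO signal ratio and signal increase over wild-type bx9.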

Positions count from the first letter of the chain named. Names and notes keep the numbering of the source.

Consider `CSc1nnc(C(C)(C)C)c(=O)n1N` [metribuzin], for which, in experiment [1], the “increase in activity over bx9 w/t protein” value was 1.3-1.5 ×.
For `C[C@@H]1C(O)N(c2cc(C(C)(C)C)on2)C(=O)N1C` (stereo partly shown) [VII], the Activity in experiment [2] was determined as 0.049 pmol/sec/pmol enzyme; in experiment [3] it was 0.042 pmol/sec/pmol enzyme; in experiment [4], 0.000 pmol/sec/pmol enzyme; in experiment [5], 0.087 pmol/sec/pmol enzyme.
With `CN1CC(O)N(c2cc(C(F)(F)F)n(C)n2)C1=O` (stereo not shown) [XII], the Activity in experiment [1] came to 0.018 pmol/sec/pmol enzyme; in experiment [4], 0.007 pmol/sec/pmol enzyme.
As a reminder, the kcat is the maximal rate divided by the concentration of active sites. Regarding `COc1ccc2c(c1)OC(O)C(=O)N2O` (stereo not shown) [DIMBOA, 2,4-dihydroxy-7-methoxy-1,4-benzoxazin-3-one], in experiment [4] (0.5 mM UDP-glucose, 25 C, pH 7.5, DMSO reagent blank as control), the kcat is 20.82 s⁻¹.
For the molecule `CC1CC(O)N(c2ncc(C(F)(F)F)s2)C1=O` (stereo not shown) [XVI], the Activity is 0.687 pmol/sec/pmol enzyme in experiment [2], 0.073 pmol/sec/pmol enzyme in experiment [1], 0.285 pmol/sec/pmol enzyme in experiment [3] and 0.359 pmol/sec/pmol enzyme in experiment [5].

B1: A202S: bx9 SEQ ID NO:1 mutant (protein)
chain: T4 sequence (B4G072 1-462) with A202S
modifications: Zea mays
In the case of B1, the “Preferred amino acid substitutions and (IF) based on RLU/min/ul” value in experiment [6] is reported as “S,I,C,M(1.0)”. Also, the “RATIO of the metribuzin signal to the DMSO signal” value in experiment [7] (2 mM metribuzin vs DMSO control, same mutant) turned out to be 0.94. In experiment [7], the “SIGNAL: metribuzin signal of mutant divided by the signal of w/t bx9” value stood at 0.91, the “luminescence signal in the DMSO control” value is given as 2.70E+05 and the “luminescence signal observed with 2 mM metribuzin” value (from here on “luminescence signal observed”) was determined as 2.53E+05.

B2: T220P: bx9 SEQ ID NO:1 mutant (protein)
chain: T4 sequence (B4G072 1-462) with T220P
modifications: Zea mays
For the molecule B2, the “Most Preferred amino acid substitutions and (IF) based on RLU/min/ul” value in experiment [6] is “H,P(4.0)”. Also, in experiment [7], the “SIGNAL: metribuzin signal of mutant divided by the signal of w/t bx9” value was 1.57, the “luminescence signal in the DMSO control” value is listed as 5.28E+05 and the “luminescence signal observed” value was 4.40E+05.

B3: T220F: bx9 SEQ ID NO:1 mutant (protein)
chain: T4 sequence (B4G072 1-462) with T220F
modifications: Zea mays
Take B3: the “Most Preferred amino acid substitutions and (IF) based on RLU/min/ul” value in experiment [6] turned out to be 3.5. Moreover, in experiment [7], the “SIGNAL: metribuzin signal of mutant divided by the signal of w/t bx9” value is 2.22, the “luminescence signal in the DMSO control” value is 7.87E+05 and the “luminescence signal observed” value turned out to be 6.21E+05.

B4: T220H: bx9 SEQ ID NO:1 mutant (protein)
chain: T4 sequence (B4G072 1-462) with T220H
modifications: Zea mays
On to B4, for which, in experiment [6], the “Most Preferred amino acid substitutions and (IF) based on RLU/min/ul” value is listed as “H,P(4.0)”. In experiment [7], the “SIGNAL: metribuzin signal of mutant divided by the signal of w/t bx9” value is on record as 1.82, the “luminescence signal in the DMSO control” value was 5.47E+05 and the “luminescence signal observed” value was determined as 5.08E+05.

B5: A202T: bx9 SEQ ID NO:1 mutant (protein)
chain: T4 sequence (B4G072 1-462) with A202T
modifications: Zea mays
In the case of B5, the “Preferred amino acid substitutions and (IF) based on RLU/min/ul” value in experiment [6] is given as “T,I,V,L,F(1.5)”. In addition, in experiment [7], the “SIGNAL: metribuzin signal of mutant divided by the signal of w/t bx9” value worked out at 0.93, the “luminescence signal in the DMSO control” value was 2.52E+05 and the “luminescence signal observed” value was found to be 2.61E+05.

B6: T220W: bx9 SEQ ID NO:1 mutant (protein)
chain: T4 sequence (B4G072 1-462) with T220W
modifications: Zea mays
Consider B6, for which the “Most Preferred amino acid substitutions and (IF) based on RLU/min/ul” value in experiment [6] stood at 3.5. In experiment [7], the “SIGNAL: metribuzin signal of mutant divided by the signal of w/t bx9” value is 1.59, the “luminescence signal in the DMSO control” value came to 4.99E+05 and the “luminescence signal observed” value is reported as 4.44E+05.
